Residue numbers refer to the chain shown, from its start.

2 molecules from patent US20220281965A1 (AstraZeneca / MedImmune, published 2022) can be followed below.

Assay [1] addresses T1, mature recombinant mouse GDF-15 with Flag and His tags (mouse, UniProt Q9Z0J7 189-303).
T1 construct: also called Flag tagged mouse GDF-15; not shown: FLAG and poly-His tags immediately C-terminal to the furin cleavage site (N-terminal on the mature protein)
T1 sequence: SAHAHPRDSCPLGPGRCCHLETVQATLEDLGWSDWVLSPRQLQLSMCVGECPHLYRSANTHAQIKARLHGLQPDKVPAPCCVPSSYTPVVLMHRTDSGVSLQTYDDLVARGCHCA
The assay can be described thus: SPR Biacore 8K, biotinylated mouse GDF-15 on streptavidin C1 chip, Fab as analyte. On the procedure: (§1) The experiments were carried out using mature recombinant human GDF-15, human GDF-15 H202D variant, mouse GDF-15, and cynomolgus GDF-15 with an N-terminal Flag and His tag. All species were chemically biotinylated using EZ link Sulfo-NHS-LC-Biotin (Thermo).
(§2) Streptavidin was covalently immobilized to a C1 chip surface using standard amine coupling techniques at a concentration of 4 μg/ml in 10 mM Sodium acetate pH 4.5. Recombinant biotinylated GDF-15 species were titrated onto the streptavidin chip surface in HBS-EP+ buffer to enable Fab binding.
(§3) Multiple buffer-only injections were made under the same conditions to allow for double reference subtraction of the final sensorgram sets, which were analyzed using Biacore 8K Evaluation Software. The chip surface was fully regenerated with pulses of 50 mM NaOH.

The target in assay [2] is T2, mature recombinant human GDF-15 with an N-terminal Flag and His tag, biotinylated (human, UniProt Q99988 197-308, chemically biotinylated with EZ link Sulfo-NHS-LC-Biotin, sites not stated).
T2 construct: not shown: N-terminal Flag and His tags
T2 sequence: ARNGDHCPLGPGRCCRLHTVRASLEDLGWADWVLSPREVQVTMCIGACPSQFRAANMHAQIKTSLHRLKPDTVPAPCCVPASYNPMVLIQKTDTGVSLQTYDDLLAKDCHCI
Put plainly: SPR Biacore 8K, 25 C, biotinylated GDF-15 on streptavidin C1 chip, Fab as analyte. The method, then: as §1, §2, §3

For assay [3], the target named is T3, mature recombinant cynomolgus GDF-15 with an N-terminal Flag and His tag, biotinylated (cynomolgus, UniProt G7PWZ3 197-308, chemically biotinylated with EZ link Sulfo-NHS-LC-Biotin, sites not stated).
T3 construct: not shown: N-terminal Flag and His tags
T3 sequence: T2 sequence with H6R, R21H, A54E, T63M, S64N, I112V
Described as above. On the procedure:
as §1, §2, §3

Assay [4] concerns the target T4, mature recombinant human GDF-15 H202D variant with an N-terminal Flag and His tag, biotinylated (human, UniProt Q99988 197-308, chemically biotinylated with EZ link Sulfo-NHS-LC-Biotin, sites not stated).
T4 construct: also called Human H202D; not shown: N-terminal Flag and His tags
T4 chain: T2 sequence with H6D
The assay is described as above. On the procedure:
as §1, §2, §3

In another assay the target is T5, mature human GDF-15 (human, UniProt Q99988 197-308).
T5 construct: Homodimer; also called hGDF-15; recombinant hu-GDF15
T5 sequence: T2 sequence
Put plainly: HTRF epitope competition; competitor DyLight 650 labelled Antibody A; Europium labelled human GDF-15.

The next assay deals with T6, mouse GDF-15 (mouse, UniProt Q9Z0J7 189-303).
T6 construct: also called mGDF-15
T6 sequence: T1 sequence
The assay can be described thus: HTRF binding assay, biotinylated mouse GDF-15. The source says: (§4) Supernatants generated from the immunizations with human GDF-15 and purified IgGs were screened to identify IgGs with specific binding to human, cynomolgus, or mouse GDF-15. The HTRF (Homogeneous Time Resolved Fluorescence) assay is based on detection of a measurable FRET signal upon binding of a titration of test antibody to biotinylated human H202D GDF-15 variant, cynomolgus GDF-15 and mouse GDF-15. Europium cryptate (EuK) labelled Streptavidin and anti-human IgG XL665 (Cis Bio) were used as secondary detection reagents serving as energy donor and acceptor respectively. In the absence of test antibody binding, there is no detectable FRET fluorescence. When test antibody binds to GDF-15, the resulting physical proximity between the secondary reagent donor/acceptor pair results in FRET. FRET was measured ratiometrically [665 nm (acceptor)/620 nm (donor)] on an Envision plate reader, and data plotted using PRISM 6® software (Graphpad).

The target of assay [5] is T7, biotinylated human H202D GDF-15 variant (human, UniProt Q99988 197-308, biotinylated, sites not stated).
T7 construct: also called Human GDF-15 H202D
T7 chain: T2 sequence with H6D
The assay can be described thus: HTRF binding assay, biotinylated antigen, titration of antibody.
From the text: as §4

Assay [6] deals with T8, biotinylated cynomolgus GDF-15 (cynomolgus, UniProt G7PWZ3 197-308, biotinylated, sites not stated).
T8 construct: also called Cyno GDF-15
T8 sequence: T2 sequence with H6R, R21H, A54E, T63M, S64N, I112V
Described as above.
From the text: as §4

B1: AB1170247 Fab (Fab, V domains shown)
VH: QVQLVQSGSELKKPGASVKVSCKASGYTFTSYDINWVRQAPGQGLEWIGWIYPRDGISKYNEKFKGRATLTVDTSASTAYMELSSLRSEDTAVYYCAGTYDPAYFDYWGQGTTVTVSS
VL: EIVLTQSPATLSVSPGERATLSCRASQSISYYLHWYQQKPGQAPRLLIKYASQSISGVPDRFSGSGSGTDFTLKISRVEAEDFGVYYCQQSNSWPYTFGGGTKVEIK
notes: Fab of the humanized antibody, expressed as in Spooner et al. 2015
In the case of B1, in assay [1], the binding result is “no binding”. For the same molecule, in assay [2], the Kd was determined as 9.24 nM, the koff is 0.0386 s⁻¹ and the kon stood at 4.18e+06 M⁻¹ s⁻¹. Further, in assay [3], the Kd was 15 nM, the koff worked out at 0.0686 s⁻¹ and the association rate constant (kon) was 4.58e+06 M⁻¹ s⁻¹. Also, in assay [4], the Kd came to 9.5 nM, the koff is 0.0385 s⁻¹ and the kon is 4.06e+06 M⁻¹ s⁻¹.

B2: AB1170002 (antibody, V domains shown)
VH: QVTLKESGPGILQPSQTLSLTCSFSGFSLSTYGMGVGWIRQPSGKGLEWLANIWWNDDKYYNSALKSRLTISKDTSNNQVFLKISSVDTADTVTYYCAQVGYDWFAYWGQGTLVTVSS
VL: EIVLTQSPALMAASPGEKVTITCSVSSSISSSNLHWYQQKSETSPKPWIYGTSNLASGVPVRFSGSGSGTSYSLTISSMEAEDAATYYCQQCSSYPLTFGAGTKLELK
In the assay with mature human GDF-15, B2 had an IC50 of 6.1 nM. The binding result with mouse GDF-15 is reported as “no binding”; in assay [5], “binds”; in assay [6], “binds”.
